These results are taken from the supplement of paper PMC9170038.

For this series, the system named is MS2 coat protein. Kind of series: apparent KD of MS2 coat protein; designed switch direction (-1 OFF switch, 1 ON switch): -1; higher = weaker reporter binding. The method in brief: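 The buffer was Tris-HCl pH 7.5 with KCl, MgCl2, BSA, DTT, tRNA and Tween-20. In it, SNAP-549-labelled MS2 coat protein was titrated in doubling steps from 0.7 or 1.5 nM to 3 µM over chip-bound RNA switches transcribed by stalled E. coli RNA polymerase on Illumina chips. Apparent KD is the per-design median over clusters of curve fits to normalised fluorescence.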

Where [1] appears, read: Eterna round: R95, input ligand: microRNA oligo, concentration not stated.
Setting [2] is: Eterna round: R95, input ligand: FMN 200 uM.
Where [3] appears, read: Eterna round: R95, input ligand: none.
Where [4] appears, read: input ligand: microRNA oligo, concentration not stated.

For “AAUUCACAUGAGGAUCACCCAUGUCAGGAUAUGGUUUCACGUGUUUCGGUGCGUGAGGCCAGAAGGGACAGCUA (puzzle: Exclusion 1)”, the “apparent KD of MS2 coat protein” value under setting [1] was 49.7 nM.
With “AAUUUACAUGAGGAUCACCCAUGUCAGGAUAUGGUUUUAUUUUUUUUUUUUUUUUAUUCCAGAAGGGACAGUUA (puzzle: Exclusion 1)”, the “apparent KD of MS2 coat protein” value by setting is: under setting [2], 24.2 nM; under setting [1], 17 nM; under setting [3], 14.8 nM.
On to “AAUUUAUGAGGAUAUACAGUGUAAAACAUGAGGAUCACCCAUGUUCUUCAAUUAGUAUUUGUAGAAGGCAUAUGUA [JR_Ex5_Sub095] (Eterna round: R97, puzzle: Exclusion 5)”, for which the “apparent KD of MS2 coat protein” value amounted to 17.2 nM (input ligand: FMN 200 uM) and 17.1 nM (input ligand: none).
As for “ACAAACACGGCAGGAUAUCCUCGCAUAUGAUAGGUUGUUCUCCACAUGAGGAUCACCCAUGUCGAGGAGAAGGGCCAUCAUUCU [Tibema] (Eterna round: R96, puzzle: Exclusion NG 2)”, the “apparent KD of MS2 coat protein” value reads like this: (input ligand: FMN 200 uM) 16.2 nM; under setting [4], 12.7 nM; (input ligand: none) 18.9 nM.
The corresponding values for “ACAAAGGAUACAGGAUAUCGCGUACAAGUGCAGCGAGAAGGGUAUUCUAUGCGCUAUCCGACAUGAGGAUCACCCAUGUGGUCC [Eternabot solution 47] (Eterna round: R96, puzzle: Exclusion NG 1)” are 417 nM, 851 nM and 366 nM.
Take “ACAACAAGCUUUUUGAACGUAGAACAUGCAGCUCUAGUCACAUGAGGAUCACCCAUGUCAGCCAGUUAGAUAGGUGA [JR_SV3TOV2_Sub066] (puzzle: Sensor v3, turn-off variant 2)”: the “apparent KD of MS2 coat protein” value came to 93.6 nM under setting [2], 126 nM under setting [1] and 127 nM under setting [3].
The like results for “ACAACAAGCUUUUUGUUCGUAGAACAUGAUGCUCUAGUCACAUGAGGAUCACCCAUGUCAACCAGAUAGAUAGUUGA [JR_SV3TOV2_Sub063] (puzzle: Sensor v3, turn-off variant 2)” were, in that order, 53.1 nM, 143 nM and 50.4 nM.
For the sequence “ACAAGAAUAGGAUAUACAACAUGCCAGCUUCUUUACAACGCACAUGAGGAUCACCCAUGUAGAAGGGUUCUCUG [Exclusion-2-#14] (Eterna round: R97, puzzle: Exclusion 2)”, the “apparent KD of MS2 coat protein” value is 360 nM (input ligand: FMN 200 uM) and 329 nM (input ligand: none).
“ACAAGCUAAAUCAUAUCUUACAUGAGGAUCACCCAUGUUUUUGCAAUUAUGUUUGGGCUCUUUUGUGCUCGUCUUAU [JR_STOV1_Sub050] (Eterna round: R97, puzzle: Sensor, turn-off variant 1)”: the “apparent KD of MS2 coat protein” value runs as follows: (input ligand: FMN 200 uM) 16.1 nM; (input ligand: none) 17.6 nM.
As to “ACAAGCUCUGUUGGGUGGUACAUGAGGAUCACCCAUGUUUUGCUCGUCUUGUGGGCCCGGGCCCGCGGCCCGGGCCC [-41.7, -69.7, A 12%] (Eterna round: R97, puzzle: Sensor, turn-off variant 1)”, the “apparent KD of MS2 coat protein” value runs as follows: (input ligand: FMN 200 uM) 513 nM; (input ligand: none) 807 nM.
With “ACAAGCUUAAAAGGUGAUAACAUGAGGAUCACCCAUGUUCGUCUUAUAAAAAUAAAAAUAAAAAAUAAAAAAUAAAA [Sensor V2: 61] (Eterna round: R96, puzzle: Sensor v2, turn-off variant)”, the “apparent KD of MS2 coat protein” value reads like this: (input ligand: FMN 200 uM) 23.1 nM; under setting [4], 114 nM; (input ligand: none) 24.2 nM.
“ACAAGCUUAAUCAGUAAGAACAUGAGGAUCACCCAUGUAAAAGGGAAGACAAUUGGGUUAUUUAAAGCUCGUCUUAU [JR_STOV1_Sub015] (Eterna round: R97, puzzle: Sensor, turn-off variant 1)”: the “apparent KD of MS2 coat protein” value (input ligand: FMN 200 uM) amounted to 62.7 nM and the “apparent KD of MS2 coat protein” value (input ligand: none) was determined as 111 nM.
The corresponding values for “ACAAGCUUGUAAUGAUUGAACAUGAGGAUCACCCAUGUAAAUGGAAGAACCAAUUGGAUAAGAUAAACUCGUCUUAU [JR_STOV1_Sub004] (Eterna round: R97, puzzle: Sensor, turn-off variant 1)” are 107 nM and 114 nM.
In the case of “ACAAGCUUUUAGAUUCUUAACAUGAGGAUCACCCAUGUGCUCGUCUUAUUGGCCGGCCGGCCGCCGGAAAAGCUUGU (Eterna round: R97, puzzle: Sensor, turn-off variant 1)”, the “apparent KD of MS2 coat protein” value amounted to 24.9 nM (input ligand: FMN 200 uM) and 25.3 nM (input ligand: none).
On to “ACAAGCUUUUAGAUUUUCAACAUGAGGAUCACCCAUGUUCGUCUUGUGCUAGUGCGAGUGCGGUGUACUCGUAUUAG [JL TOV1 3.82 sellena mod] (Eterna round: R97, puzzle: Sensor, turn-off variant 1)”, for which the “apparent KD of MS2 coat protein” value (input ligand: FMN 200 uM) came to 18.5 nM and the “apparent KD of MS2 coat protein” value (input ligand: none) is 18.4 nM.
The corresponding values for “ACAAGCUUUUAGAUUUUCAACAUGAGGAUCACCCAUGUUCGUCUUGUGCUCGGGCUUGGGCGGUGUCCGGGUUUGGG [JL TOV1 3.77 sellena mod] (Eterna round: R97, puzzle: Sensor, turn-off variant 1)” are 33 nM and 34.7 nM.
“ACAAGCUUUUGCUCGUCUUACAUGAGGAUCACCCAUGUCGGAUGAUCGCUUGCGUCCGGCGUCUGAGCCGUGACGGU [Sensor, turn off variant MOD of sellena. cleaned up dot.] (Eterna round: R97, puzzle: Sensor, turn-off variant 1)”: the “apparent KD of MS2 coat protein” value reads like this: (input ligand: FMN 200 uM) 15.3 nM; (input ligand: none) 15 nM.
As to “ACAAGCUUUUGCUCGUCUUACAUGAGGAUCACCCAUGUCGGGAGCAUGCAUACGUCCAGCAUCUGGACCGUAGCAGA [-25.7, -49.8 kcal, 25% A] (Eterna round: R97, puzzle: Sensor, turn-off variant 1)”, the “apparent KD of MS2 coat protein” value (input ligand: FMN 200 uM) worked out at 16.3 nM and the “apparent KD of MS2 coat protein” value (input ligand: none) was 18.1 nM.
The corresponding values for “ACAAGCUUUUUCGUGGGUGACAUGAGGAUCACCCAUGUUUGCCACGUCUUGUGGGCCCGGGCCCGCGGCCCGGGCCC [-44.6, -64.9, A 13%] (Eterna round: R97, puzzle: Sensor, turn-off variant 1)” are 45.8 nM and 47.1 nM.
“ACAAGCUUUUUGCUCGGCUACAUGAGGAUCACCCAUGUUGUGUGUUAUUGUUUUUGAUUGUUCGUGCGCAGCAGGUA [JR_SV3TOV1_Sub073] (puzzle: Sensor v3, turn-off variant 1)”: the “apparent KD of MS2 coat protein” value by setting is: under setting [2], 71 nM; under setting [1], 29.4 nM; under setting [3], 112 nM.
The corresponding values for “ACAAGCUUUUUGCUCGUCGAGUAGAAACGUGAGAGCGAGACAUGAGGAUCACCCAUGUAAAGGCAGUAGGUGGAGAU [JR_SV3TOV2_Sub025] (puzzle: Sensor v3, turn-off variant 2)” are 33.2 nM, 43.2 nM and 33.9 nM.
The corresponding values for “ACAAGCUUUUUGCUCGUCUACAUGAGGAUCACCCAUGUAGUGAGAUAGUGGUGAAGAUAGAAUGAGCGUAGUAGGUA [JR_SV3TOV1_Sub070] (puzzle: Sensor v3, turn-off variant 1)” are 14.5 nM, 34.1 nM and 10.2 nM.
For the sequence “ACAAGCUUUUUGUUCGUCUUAUAAUAUUCUAAGAGGAUAACAUGAGGAUCACCCAUGUAACAAAGACGGACUCAUGU [Sesor Array 14 - Jieux - Sensor v3, turn-off variant 2] (puzzle: Sensor v3, turn-off variant 2)”, the “apparent KD of MS2 coat protein” value reads like this: under setting [2], 13 nM; under setting [1], 139 nM; under setting [3], 11.7 nM.
The like results for “ACAAGCUUUUUGUUCGUCUUAUACACUCCUAAGAGGACAACAUGAGGAUCACCCAUGUAACAAAGACGGACUCAUGU [Sesor Array 11 - Jieux - Sensor v3, turn-off variant 2] (puzzle: Sensor v3, turn-off variant 2)” were, in that order, 17.7 nM, 129 nM and 12 nM.
For the sequence “ACAAGCUUUUUGUUCGUCUUAUACACUCCUAAUAGGACAACAUGAGGAUCACCCAUGUAACAAAGACGAACUCAUGU [Sesor Array 9 - Jieux - Sensor v3, turn-off variant 2] (puzzle: Sensor v3, turn-off variant 2)”, the “apparent KD of MS2 coat protein” value under setting [2] was 11.6 nM, the “apparent KD of MS2 coat protein” value under setting [1] was found to be 169 nM and the “apparent KD of MS2 coat protein” value under setting [3] came out at 9.63 nM.
In the case of “ACAAUGUUAGGAUAUCUGACAAUUAGUCUCGACUAGUCGAAAGAGAAGGAACAUGAGGAUCACCCAUGUAGAUC [EX4 #73] (Eterna round: R97, puzzle: Exclusion 4)”, the “apparent KD of MS2 coat protein” value (input ligand: FMN 200 uM) came out at 144 nM and the “apparent KD of MS2 coat protein” value (input ligand: none) was 37.4 nM.
Turning to “ACAAUUAUGACAGGAUAUAGUUUUUGUUGGUCACUAGAAGGGUCUAUGCACAUGAGGAUCACCCAUGUUCUUUUUAUAUGCGAU [JR_ExcNG1_Sub018] (Eterna round: R96, puzzle: Exclusion NG 1)”, the “apparent KD of MS2 coat protein” value stood at 31.8 nM (input ligand: FMN 200 uM), 36.2 nM under setting [4] and 44.4 nM (input ligand: none).
As for “ACACAAGCCCUUUGCUCGUUUUAAUACAGCGGGCUCUUCACAUGAGGAUCACCCAUGUAGGCCUUGUUCCAAGGCCG [Rebileve] (puzzle: Sensor v3, turn-off variant 2)”, the “apparent KD of MS2 coat protein” value is, setting by setting: under setting [2], 20.4 nM; under setting [1], 23.6 nM; under setting [3], 20 nM.
For “ACACAGCAAGGAUAUACAUGAGGAUCACCCAUGUGGUGGCAGUUACGGUAGGACUAGUGUAGAAGGUGCAGUGG [EX3 #30] (Eterna round: R97, puzzle: Exclusion 3)”, the “apparent KD of MS2 coat protein” value (input ligand: FMN 200 uM) was 487 nM and the “apparent KD of MS2 coat protein” value (input ligand: none) is 668 nM.
